First the molecules themselves.
B1: PKD2L1 (parent)
chain: SGPEAARAGGWVSGEEFYMLTRRV
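Further: lentivirally expressed fusions sorted by FACS into six bins by GFP to DsRed ratio, PSI derived from sequencing read proportions per bin multiplied by bin number.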

The variants in the data set derive from B1. As to the kind of experiment: protein stability index of a GFP-peptide fusion (GPS, HEK-293T) (PSI 1-6); higher = more stable. The settings on record: c terminus: a fixed tail appended.
For the variant SGPEAARAGGWVSGEEFYCLTRRV, the protein stability index worked out at 2.82. Regarding SGPEAARAGGWVSGEEFYNLTRRV, the protein stability index stood at 3.63. Turning to SGPEAARAGGWVSGEEFYYLTRRV, the protein stability index came to 2.39. Consider SGPEAARAGGWVSGEEFYELTRRV, for which the protein stability index was 3.69. As to SGPEAARAGGWVSGEEFYPLTRRV, the protein stability index was 3.94. Consider SGPEAARAGGWVSGEEFYDLTRRV, for which the protein stability index was 3.5. Take SGPEAARAGGWVSGEEFYVLTRRV: the protein stability index was found to be 1.48. The value for SGPEAARAGGWVSGEEFYFLTRRV was 2.93. SGPEAARAGGWVSGEEFYHLTRRV: the protein stability index was determined as 3.08. Then SGPEAARAGGWVSGEEFYSLTRRV, with 3.43; and SGPEAARAGGWVSGEEFYMLTRFV, with 2.06.

In the case of SGPEAARAGGWVSGEEFYMLTRVV, the protein stability index worked out at 2.16. As to SGPEAARAGGWVSGEEFYMLTRAV, the protein stability index came out at 1.85. As to SGPEAARAGGWVSGEEFYMLTRWV, the protein stability index worked out at 2.87. SGPEAARAGGWVSGEEFYMLTRYV: the protein stability index amounted to 2.44. The value for SGPEAARAGGWVSGEEFYMLTREV was 2.84; that for SGPEAARAGGWVSGEEFYMLTRNV was 2.5; that for SGPEAARAGGWVSGEEFYMLTRDV was 3.49.

Regarding SGPEAARAGGWVSGEEFYMLTRQV, the protein stability index was 1.92. Then SGPEAARAGGWVSGEEFYMLTRTV, with 2.07; and SGPEAAWAGGWVSGEEFYMLTRRV, with 2.6. Regarding SGPEAAVAGGWVSGEEFYMLTRRV, the protein stability index worked out at 2.56. With SGPEAARAGGWKSGEEFYMLTRRV, the protein stability index is 2.47.

Consider SGPEAARAGGWLSGEEFYMLTRRV, for which the protein stability index amounted to 2.6. As to SGPEAARAGGWPSGEEFYMLTRRV, the protein stability index was 2.31.

With SGPEAARAGGWMSGEEFYMLTRRV, the protein stability index was 2.25. Turning to SGPEAARAGGWISGEEFYMLTRRV, the protein stability index was determined as 2.2. Take SGPEAARAGGWYSGEEFYMLTRRV: the protein stability index worked out at 1.96.

As for SGPEAARAGGWNSGEEFYMLTRRV, the protein stability index came to 2.73. Turning to SGPEAARAGGWWSGEEFYMLTRRV, the protein stability index was 2.28. For the variant SGPEAARAGGWFSGEEFYMLTRRV, the protein stability index stood at 2.12. In the case of SGPEAARAGGWTSGEEFYMLTRRV, the protein stability index stood at 2.31. Then SGPEACRAGGWVSGEEFYMLTRRV, with 2.31; and SGPEAIRAGGWVSGEEFYMLTRRV, with 2.02.

Take SGPEAERAGGWVSGEEFYMLTRRV: the protein stability index was determined as 2.65. With SGPEAKRAGGWVSGEEFYMLTRRV, the protein stability index is 2.12.

On to SGPEARRAGGWVSGEEFYMLTRRV, for which the protein stability index was 2.43. Turning to SGPEAMRAGGWVSGEEFYMLTRRV, the protein stability index amounted to 1.7. As to SGPEALRAGGWVSGEEFYMLTRRV, the protein stability index amounted to 3.07. Regarding SGPEAVRAGGWVSGEEFYMLTRRV, the protein stability index stood at 3.13. Then SGPEAYRAGGWVSGEEFYMLTRRV, with 2.4; and SGPEANRAGGWVSGEEFYMLTRRV, with 2.85. With SGPEAFRAGGWVSGEEFYMLTRRV, the protein stability index was found to be 1.68. With SYPEAARAGGWVSGEEFYMLTRRV, the protein stability index worked out at 1.72. For the variant SPPEAARAGGWVSGEEFYMLTRRV, the protein stability index came out at 2.08. On to STPEAARAGGWVSGEEFYMLTRRV, for which the protein stability index was found to be 2.94. With SDPEAARAGGWVSGEEFYMLTRRV, the protein stability index stood at 2.24. With SEPEAARAGGWVSGEEFYMLTRRV, the protein stability index amounted to 3.1. As for SMPEAARAGGWVSGEEFYMLTRRV, the protein stability index was 3.57. With SNPEAARAGGWVSGEEFYMLTRRV, the protein stability index was found to be 2.93.

Turning to SSPEAARAGGWVSGEEFYMLTRRV, the protein stability index was 2.19.

Take SHPEAARAGGWVSGEEFYMLTRRV: the protein stability index came to 2.17. Take SGPEAARAGGWVSGEEFQMLTRRV: the protein stability index was 3.03. As to SGPEAARAGGWVSGEEFAMLTRRV, the protein stability index turned out to be 3.38.

As for SGPEAARAGGWVSGEEFMMLTRRV, the protein stability index worked out at 2.84. Turning to SGPEAARAGGWVSGEEFYMLTNRV, the protein stability index amounted to 2.81. Take SGPEAARAGGWVSGEEFYMLTQRV: the protein stability index was 2.25. Then SGPEAARAGGWVSGEEFYMLTERV, with 3.26. On to SGPEAARAGGWVSGEEFYMLTIRV, for which the protein stability index was determined as 2.28.

Consider SGPEAARAGGWVSGEEFYMLTWRV, for which the protein stability index was determined as 1.72. Then SGPEAARAGGWVSGEERYMLTRRV, with 3.68.

As for SGPEAARAGGWVSGEEDYMLTRRV, the protein stability index was 4.59.

As for SGPEAARAGGWVSGEEAYMLTRRV, the protein stability index came out at 4.1. For SGPEAARAGGWVSGEEQYMLTRRV, the protein stability index is 4.05. In the case of SGPEAARAGGWVSGEECYMLTRRV, the protein stability index amounted to 3.03. In the case of SGPEAARAGGWVSGEEGYMLTRRV, the protein stability index amounted to 4.13. The value for SGPEAARAGGWVSGEEKYMLTRRV was 3.39; that for SGPEAARAGGWVSGEEWYMLTRRV was 2.14. EGPEAARAGGWVSGEEFYMLTRRV: the protein stability index turned out to be 2.68. For the variant LGPEAARAGGWVSGEEFYMLTRRV, the protein stability index was 1.5. Then AGPEAARAGGWVSGEEFYMLTRRV, with 2.81; and QGPEAARAGGWVSGEEFYMLTRRV, with 3.02; and KGPEAARAGGWVSGEEFYMLTRRV, with 2.75. For DGPEAARAGGWVSGEEFYMLTRRV, the protein stability index was 2.35. As to VGPEAARAGGWVSGEEFYMLTRRV, the protein stability index turned out to be 2.67. The value for MGPEAARAGGWVSGEEFYMLTRRV was 2.04; that for SGPLAARAGGWVSGEEFYMLTRRV was 1.6; that for SGPRAARAGGWVSGEEFYMLTRRV was 2.44. Then SGPTAARAGGWVSGEEFYMLTRRV, with 1.78; and SGPFAARAGGWVSGEEFYMLTRRV, with 1.71; and SGPPAARAGGWVSGEEFYMLTRRV, with 2.08.

As for SGPCAARAGGWVSGEEFYMLTRRV, the protein stability index stood at 1.81. With SGPDAARAGGWVSGEEFYMLTRRV, the protein stability index was determined as 2.59. The value for SGPGAARAGGWVSGEEFYMLTRRV was 2.42. Regarding SGPKAARAGGWVSGEEFYMLTRRV, the protein stability index worked out at 1.94. In the case of SGPMAARAGGWVSGEEFYMLTRRV, the protein stability index was found to be 2.35. With SGPEAARAGGWVSGEVFYMLTRRV, the protein stability index was found to be 1.64. With SGPEAARAGGWVSGERFYMLTRRV, the protein stability index is 1.93. Regarding SGPEAARAGGWVSGESFYMLTRRV, the protein stability index is 2.73. Turning to SGPEAARAGGWVSGEFFYMLTRRV, the protein stability index stood at 2.75. Turning to SGPEAARAGGWVSGEGFYMLTRRV, the protein stability index is 2.6. Turning to SGPEAARAGGWVSGEDFYMLTRRV, the protein stability index worked out at 2.29. As to SGPEAARAGGWVSGETFYMLTRRV, the protein stability index is 2.26.

As to SGPEAARAGGWVSGEYFYMLTRRV, the protein stability index amounted to 2.02.

Source of the values: the supplement of paper PMC10567573.
